{
  "source": "patent US20210163624A1",
  "key": {"[1]": {"biological_target": "RMF peptide (…)/HLA-A0201 complex on the cell surface (human)", "test": "flow cytometry, T2 cells pulsed with WT1 (RMF) peptide 50 ug/ml, control mAb at 0.1 (ug/ml by paragraph 199); secondary alone (T2-WT1-2AB) prints 18"}, "[2]": {"biological_target": "RMF peptide (…)/HLA-A0201 complex on the cell surface (human)", "test": "flow cytometry, T2 cells pulsed with WT1 (RMF) peptide 50 ug/ml, control mAb at 0.01 (ug/ml by paragraph 199); secondary alone (T2-WT1-2AB) prints 18"}, "[3]": {"biological_target": "RMF peptide (…)/HLA-A0201 complex on the cell surface (human)", "test": "flow cytometry, T2 cells pulsed with WT1 (RMF) peptide 50 ug/ml, control mAb at 10 (ug/ml by paragraph 199); secondary alone (T2-WT1-2AB) prints 18"}, "[4]": {"biological_target": "RMF peptide (…)/HLA-A0201 complex on the cell surface (human)", "test": "flow cytometry, T2 cells pulsed with WT1 (RMF) peptide 50 ug/ml, control mAb at 1 (ug/ml by paragraph 199); secondary alone (T2-WT1-2AB) prints 18"}},
  "data": [
    {"substance": "Isotype control human IgG1 (antibody)", "values": [
      {"measurement": "fluorescence value (FL2-H: PE; statistic not given)", "setting": "[1]", "value": 29.5},
      {"measurement": "fluorescence value (FL2-H: PE; statistic not given)", "setting": "[2]", "value": 31.8},
      {"measurement": "fluorescence value (FL2-H: PE; statistic not given)", "setting": "[3]", "value": 31.1},
      {"measurement": "fluorescence value (FL2-H: PE; statistic not given)", "setting": "[4]", "value": 37.9}
    ]}
  ]
}
